We go through 3 compounds from patent US9260483B2, “Triazacyclononane-based phosphinate ligand and its use for molecular imaging” (TECHNISCHE UNIVERSITÄT MÜNCHEN, priority 2011, dated 2016).

Series [1] has as its system CD-1 athymic nude mice bearing human melanoma xenografts. The following applies: mouse.
Series [2] in a line: in vivo. More on the design: species or system mice. Conditions: CD-1 athymic nude, mouse, total radioactivity. As for the experimental part:
Biodistribution of ^68Ga-R3PEG4P9
Biodistribution studies were performed using CD-1 athymic nude mice bearing human melanoma xenografts on both shoulders (right: M21 cell line with high αvβ3 integrin xexpression, left: M21L cell line with low αvβ3 integrin expression). The mice were injected 6-9 MBq of ^68Ga-R3PEG4P9 (specific activity: ca. 900 GBq/μmol, corresponding to approx. 7-10 pmol of the tracer). After the specified time points (60 and 120 min, respectively), the mice were sacrificed, the organs taken out and counted in a gamma counter. For blockade, the mice were administered 200 μg (approx. 10 mg/kg) of unlabeled R3PEG4P9 10 min before tracer injection.
Data is visualized in the chart (FIG. 3).

The target in series [3] is T1, αvβ3 integrin (Homo sapiens, UniProt P05106+P06756).
T1 construct: endogenous in cells; host or cells: M21 human melanoma cells
T1 sequence (P06756 31-889 limits assumed): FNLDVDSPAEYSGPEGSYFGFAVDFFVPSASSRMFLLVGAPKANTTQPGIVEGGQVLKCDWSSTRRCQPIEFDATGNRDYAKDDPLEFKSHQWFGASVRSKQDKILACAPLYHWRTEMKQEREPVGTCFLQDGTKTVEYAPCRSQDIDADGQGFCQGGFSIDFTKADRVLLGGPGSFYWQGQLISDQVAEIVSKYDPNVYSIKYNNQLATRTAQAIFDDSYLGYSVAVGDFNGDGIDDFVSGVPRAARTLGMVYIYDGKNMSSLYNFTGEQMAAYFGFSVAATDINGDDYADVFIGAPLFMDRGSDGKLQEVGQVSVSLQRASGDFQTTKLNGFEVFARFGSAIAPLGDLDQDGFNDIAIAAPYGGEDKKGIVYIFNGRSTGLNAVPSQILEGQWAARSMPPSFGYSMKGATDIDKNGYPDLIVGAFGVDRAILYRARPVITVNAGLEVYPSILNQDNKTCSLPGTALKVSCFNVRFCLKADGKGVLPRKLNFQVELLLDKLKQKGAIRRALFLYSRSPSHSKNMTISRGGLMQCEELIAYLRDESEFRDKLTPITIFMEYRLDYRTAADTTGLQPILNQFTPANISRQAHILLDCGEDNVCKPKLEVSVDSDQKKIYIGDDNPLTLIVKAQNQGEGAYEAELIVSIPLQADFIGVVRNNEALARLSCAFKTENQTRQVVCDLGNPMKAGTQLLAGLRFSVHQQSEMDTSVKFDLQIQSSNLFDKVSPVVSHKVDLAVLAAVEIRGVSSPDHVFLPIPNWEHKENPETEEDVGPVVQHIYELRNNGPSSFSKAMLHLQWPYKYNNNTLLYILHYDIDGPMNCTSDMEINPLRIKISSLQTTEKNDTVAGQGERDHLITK
T1 sequence (P06756 891-1048 partner limits assumed): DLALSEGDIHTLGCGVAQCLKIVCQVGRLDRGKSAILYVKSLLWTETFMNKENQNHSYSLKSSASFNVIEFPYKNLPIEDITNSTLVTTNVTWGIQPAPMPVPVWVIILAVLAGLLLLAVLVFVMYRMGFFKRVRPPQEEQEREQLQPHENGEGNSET
T1 sequence (P05106 27-788): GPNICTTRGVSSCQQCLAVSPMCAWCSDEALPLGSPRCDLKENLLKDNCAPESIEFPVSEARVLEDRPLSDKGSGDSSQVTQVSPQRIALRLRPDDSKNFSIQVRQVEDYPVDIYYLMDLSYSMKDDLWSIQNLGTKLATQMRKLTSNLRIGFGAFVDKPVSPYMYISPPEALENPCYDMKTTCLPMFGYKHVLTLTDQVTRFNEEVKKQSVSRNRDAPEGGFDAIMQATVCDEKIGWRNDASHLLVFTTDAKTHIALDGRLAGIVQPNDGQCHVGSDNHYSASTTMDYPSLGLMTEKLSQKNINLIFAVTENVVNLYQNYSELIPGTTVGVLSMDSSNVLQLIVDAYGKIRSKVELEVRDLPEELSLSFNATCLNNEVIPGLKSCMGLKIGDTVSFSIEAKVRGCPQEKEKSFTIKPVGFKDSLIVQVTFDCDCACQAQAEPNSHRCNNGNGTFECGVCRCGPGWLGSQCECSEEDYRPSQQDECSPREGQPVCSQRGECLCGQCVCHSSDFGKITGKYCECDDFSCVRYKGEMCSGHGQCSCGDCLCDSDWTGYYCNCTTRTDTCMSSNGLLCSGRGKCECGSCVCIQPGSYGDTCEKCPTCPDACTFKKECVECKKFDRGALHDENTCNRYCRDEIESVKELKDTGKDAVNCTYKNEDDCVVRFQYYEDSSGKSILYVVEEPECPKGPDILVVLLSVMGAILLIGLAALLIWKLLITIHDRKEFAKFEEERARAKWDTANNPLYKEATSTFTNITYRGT
The series can be described thus: In vitro binding assay: displacement of 125I-echistatin on M21 human melanoma cells. The following applies: log IC50. For orientation: Loss of bound radioactivity is the signal in a displacement assay; it reports binding, not function.

The nature of series [4]: Log P determination: octanol-water partition coefficient (1-octanol/PBS) of the labelled compound.
Method: Octanol-water partition coefficients were determined by addition of ca. 50 kBq of the respective labelled compound to Eppendorf cup containing each 500 μl of 1-octanol and isotonic phosphate buffered saline (PBS). After 2 min of vigorous stirring, the phases were separated by centrifugation, 100 μl aliquots of each phase taken out and the activity contained determined with a gamma counter. Each experiment was repeated 5-8 times.

Like-named read-outs stand apart in the source and are kept apart here.

For the compound `N=C(N)NCCC[C@@H]1NC(=O)[C@H](CCCCNC(=O)CCOCCOCCOCCOCCNC(=O)CCP(=O)(O)CN2CCN(CP(=O)(O)CCC(=O)NCCOCCOCCOCCOCCC(=O)NCCCC[C@@H]3NC(=O)[C@@H](Cc4ccccc4)NC(=O)[C@H](CC(=O)O)NC(=O)CNC(=O)[C@H](CCCNC(=N)N)NC3=O)CCN(CP(=O)(O)CCC(=O)NCCOCCOCCOCCOCCC(=O)NCCCC[C@@H]3NC(=O)[C@@H](Cc4ccccc4)NC(=O)[C@H](CC(=O)O)NC(=O)CNC(=O)[C@H](CCCNC(=N)N)NC3=O)CC2)NC(=O)[C@@H](Cc2ccccc2)NC(=O)[C@H](CC(=O)O)NC(=O)CNC1=O` (single isomer, unassigned) [68Ga-R3PEG4P9, metal not drawn], in series [1] (in vivo), the “fraction of the blood activity in the plasma after centrifugation” value was 96%. Moreover, the “metabolites in tissue extracts, plasma and urine (radio-HPLC)” value in series [1] (in vivo) is reported as “no metabolites could be detected”. In addition, the tissue uptake at 1 h in series [2] (adrenal gland, 60 min, blocked, read-out: uptake % ID/g, adrenal gland) stood at 0.36 %ID/g; in series [2] (adrenal gland, 60 min, read-out: uptake % ID/g, adrenal gland), 27.8 %ID/g; in series [2] (blood, 60 min, blocked (200 μg unlabeled R3PEG4P9 10 min before), read-out: uptake % ID/g, blood), 0.09 %ID/g; in series [2] (blood, 60 min after tracer injection, read-out: uptake % ID/g, blood), 0.31 %ID/g; in series [2] (heart, 60 min, blocked, read-out: uptake % ID/g, heart), 0.08 %ID/g; in series [2] (heart, 60 min, read-out: uptake % ID/g, heart), 1.29 %ID/g. Besides, the tissue uptake at 1 h came to 1.97 %ID/g in series [2] (kidneys, 60 min, blocked, read-out: uptake % ID/g, kidneys); 10.2 %ID/g in series [2] (kidneys, 60 min, read-out: uptake % ID/g, kidneys); 0.11 %ID/g in series [2] (large int., 60 min, blocked, read-out: uptake % ID/g, large int.); 2.44 %ID/g in series [2] (large int., 60 min, read-out: uptake % ID/g, large int.); 0.32 %ID/g in series [2] (liver, 60 min, blocked, read-out: uptake % ID/g, liver); 5.18 %ID/g in series [2] (liver, 60 min, read-out: uptake % ID/g, liver). Further, the tissue uptake at 1 h in series [2] (lung, 60 min, blocked, read-out: uptake % ID/g, lung) is 0.54 %ID/g; in series [2] (lung, 60 min, read-out: uptake % ID/g, lung), 2.96 %ID/g; in series [2] (muscle, 60 min, blocked, read-out: uptake % ID/g, muscle) it was 0.05 %ID/g; in series [2] (muscle, 60 min, read-out: uptake % ID/g, muscle), 0.95 %ID/g; in series [2] (pancreas, 60 min, blocked, read-out: uptake % ID/g, pancreas), 0.07 %ID/g; in series [2] (pancreas, 60 min, read-out: uptake % ID/g, pancreas), 0.88 %ID/g. The tissue uptake at 1 h is 0.24 %ID/g in series [2] (small int., 60 min, blocked, read-out: uptake % ID/g, small int.); 4.92 %ID/g in series [2] (small int., 60 min, read-out: uptake % ID/g, small int.); 0.24 %ID/g in series [2] (spleen, 60 min, blocked, read-out: uptake % ID/g, spleen); 3.38 %ID/g in series [2] (spleen, 60 min, read-out: uptake % ID/g, spleen); 0.17 %ID/g in series [2] (stomach, 60 min, blocked, read-out: uptake % ID/g, stomach); 4.43 %ID/g in series [2] (stomach, 60 min, read-out: uptake % ID/g, stomach). The tissue uptake at 1 h is 0.17 %ID/g in series [2] (thyroid, 60 min, blocked, read-out: uptake % ID/g, thyroid); 3.27 %ID/g in series [2] (thyroid, 60 min, read-out: uptake % ID/g, thyroid); 0.62 %ID/g in series [2] (tumor M21 (high αvβ3), 60 min, blocked, read-out: uptake % ID/g, tumor M21); 6.08 %ID/g in series [2] (tumor M21 (high αvβ3), 60 min, read-out: uptake % ID/g, tumor M21); 0.31 %ID/g in series [2] (tumor M21L (low αvβ3), 60 min, blocked, read-out: uptake % ID/g, tumor M21L); 1.48 %ID/g in series [2] (tumor M21L (low αvβ3), 60 min, read-out: uptake % ID/g, tumor M21L). The tissue uptake at 2 h in series [2] (adrenal gland, 120 min, read-out: uptake % ID/g, adrenal gland) came to 24.2 %ID/g; in series [2] (blood, 120 min after tracer injection, read-out: uptake % ID/g, blood), 0.16 %ID/g; in series [2] (heart, 120 min, read-out: uptake % ID/g, heart) it was 1.47 %ID/g; in series [2] (kidneys, 120 min, read-out: uptake % ID/g, kidneys) it was 8.63 %ID/g; in series [2] (large int., 120 min, read-out: uptake % ID/g, large int.) it was 2.27 %ID/g; in series [2] (liver, 120 min, read-out: uptake % ID/g, liver), 3.97 %ID/g. The tissue uptake at 2 h in series [2] (lung, 120 min, read-out: uptake % ID/g, lung) was found to be 2.15 %ID/g; in series [2] (muscle, 120 min, read-out: uptake % ID/g, muscle), 0.67 %ID/g; in series [2] (pancreas, 120 min, read-out: uptake % ID/g, pancreas), 0.81 %ID/g; in series [2] (small int., 120 min, read-out: uptake % ID/g, small int.) it was 3.75 %ID/g; in series [2] (spleen, 120 min, read-out: uptake % ID/g, spleen) it was 3.5 %ID/g; in series [2] (stomach, 120 min, read-out: uptake % ID/g, stomach), 3.56 %ID/g. Further, the tissue uptake at 2 h was found to be 2.89 %ID/g in series [2] (thyroid, 120 min, read-out: uptake % ID/g, thyroid); 4.63 %ID/g in series [2] (tumor M21 (high αvβ3), 120 min, read-out: uptake % ID/g, tumor M21); 1.7 %ID/g in series [2] (tumor M21L (low αvβ3), 120 min, read-out: uptake % ID/g, tumor M21L).

The term IC50 denotes the concentration at which inhibition is half-maximal. The low end stands for higher potency, the high end for lower potency. The compound `N=C(N)NCCC[C@@H]1NC(=O)[C@H](CCCCNC(=O)CCOCCOCCOCCOCCNC(=O)CCP(=O)(O)CN2CCN(CP(=O)(O)CCC(=O)NCCOCCOCCOCCOCCC(=O)NCCCC[C@@H]3NC(=O)[C@H](Cc4ccccc4)NC(=O)[C@H](CC(=O)O)NC(=O)CNC(=O)[C@H](CCCNC(=N)N)NC3=O)CCN(CP(=O)(O)CCC(=O)NCCOCCOCCOCCOCCC(=O)NCCCC[C@@H]3NC(=O)[C@@H](Cc4ccccc4)NC(=O)[C@@H](CC(=O)O)NC(=O)CNC(=O)[C@@H](CCCNC(=N)N)NC3=O)CC2)NC(=O)[C@H](Cc2ccccc2)NC(=O)[C@H](CC(=O)O)NC(=O)CNC1=O` [Compound R3PEG4P9] gave an IC50 in series [3] of 0.0427 µM. Further, in series [1], the “stability in vivo (analysis of metabolites)” value is recorded as “fully stable in vivo”.

For orientation: logP means the decadic logarithm of the partition coefficient of the neutral form, usually between octanol and water. Lower therefore signals a more hydrophilic compound. In the case of `N=C(N)NCCC[C@@H]1NC(=O)[C@H](CCCCNC(=O)CCOCCOCCOCCOCCOCCOCCOCCOCCNC(=O)CCP(=O)(O)CN2CCN(CP(=O)(O)CCC(=O)NCCOCCOCCOCCOCCOCCOCCOCCOCCC(=O)NCCCC[C@@H]3NC(=O)[C@@H](Cc4ccccc4)NC(=O)[C@H](CC(=O)O)NC(=O)CNC(=O)[C@H](CCCNC(=N)N)NC3=O)CCN(CP(=O)(O)CCC(=O)NCCOCCOCCOCCOCCOCCOCCOCCOCCC(=O)NCCCC[C@@H]3NC(=O)[C@@H](Cc4ccccc4)NC(=O)[C@H](CC(=O)O)NC(=O)CNC(=O)[C@H](CCCNC(=N)N)NC3=O)CC2)NC(=O)[C@@H](Cc2ccccc2)NC(=O)[C@H](CC(=O)O)NC(=O)CNC1=O` [Ga-R3PEG8P9], the logP in series [4] is -4.13 ± 0.16.
